{"source": "paper PMC3642679", "origin": "cited, not measured here", "biological_target": "sliding clamp beta (Escherichia coli) (UniProt P0A988)", "sequence (P0A988 whole entry)": "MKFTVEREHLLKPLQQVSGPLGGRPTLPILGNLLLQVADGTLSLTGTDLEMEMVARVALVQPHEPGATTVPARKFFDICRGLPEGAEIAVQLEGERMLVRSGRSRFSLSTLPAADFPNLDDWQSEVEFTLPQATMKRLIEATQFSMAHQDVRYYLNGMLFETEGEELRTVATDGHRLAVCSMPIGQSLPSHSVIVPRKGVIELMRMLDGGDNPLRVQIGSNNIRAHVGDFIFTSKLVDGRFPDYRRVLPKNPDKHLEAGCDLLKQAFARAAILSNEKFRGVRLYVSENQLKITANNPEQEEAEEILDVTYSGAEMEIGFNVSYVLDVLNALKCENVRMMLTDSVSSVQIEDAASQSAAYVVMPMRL"}
{"substance": "Pol III alpha (from UniProt P10443)", "values": [{"measurement": "Kd", "result": 1000, "unit": "nM"}]}
